Data as given in the supplement of paper PMC9112550, “Optimization of the antimicrobial peptide Bac7 by deep mutational scanning” (BMC Biology, 2022).

system: Escherichia coli TOP10; experiment: shrunken log2 fold change of peptide-encoding DNA abundance (4.5 h post-induction vs induction); higher = less antimicrobial activity (less host growth inhibition); details: time post-induction: 4.5 h; library: site-saturation at positions 5, 18, 19, 20
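Further: peptides expressed intracellularly from a pBAD plasmid library in pooled LB shake-flask culture, induced with 0.3% L-arabinose, DNA abundance read by NGS, three biological replicates, DESeq2 with apeglm shrinkage.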

Row | Sequence | shrunken log2 fold change
1 | RRIRGRPPRLPRPRPRPDTHPRP | -0.156
2 | RRIRARPPRLPRPRPRPCNHPRP | -0.177
3 | RRIRARPPRLPRPRPRPDMCPRP | -0.335
4 | RRIRKRPPRLPRPRPRPYYMPRP | -0.405
5 | RRIRDRPPRLPRPRPRPNVMPRP | -0.323
6 | RRIRDRPPRLPRPRPRPIDGPRP | 0.0392
7 | RRIRMRPPRLPRPRPRPYYIPRP | -0.227
8 | RRIRDRPPRLPRPRPRPKNVPRP | -0.0304
9 | RRIRDRPPRLPRPRPRPTDAPRP | -0.036
10 | RRIRWRPPRLPRPRPRPEAMPRP | 0.142
11 | RRIRDRPPRLPRPRPRPQNIPRP | -0.126
12 | RRIRARPPRLPRPRPRPVTPPRP | 0.479
13 | RRIRIRPPRLPRPRPRPELKPRP | 0.224
14 | RRIRGRPPRLPRPRPRPGQQPRP | 0.0088
15 | RRIRWRPPRLPRPRPRPARQPRP | 0.0282
16 | RRIRERPPRLPRPRPRPTWFPRP | 0.118
17 | RRIRHRPPRLPRPRPRPTKDPRP | -0.154
18 | RRIRRRPPRLPRPRPRPDPFPRP | 0.1
19 | RRIRIRPPRLPRPRPRPMVQPRP | -0.0334
20 | RRIRARPPRLPRPRPRPDEEPRP | 0.901
21 | RRIRTRPPRLPRPRPRPAIRPRP | 0.00208
22 | RRIRKRPPRLPRPRPRPCQAPRP | 0.157
23 | RRIRMRPPRLPRPRPRPSAWPRP | 1.75
24 | RRIRCRPPRLPRPRPRPYHRPRP | -0.77
25 | RRIRGRPPRLPRPRPRPKMTPRP | 1.83

Row | Sequence | shrunken log2 fold change
26 | RRIRLRPPRLPRPRPRPKAYPRP | -0.402
27 | RRIRQRPPRLPRPRPRPYPFPRP | -0.035
28 | RRIRERPPRLPRPRPRPMICPRP | -0.115
29 | RRIRIRPPRLPRPRPRPPVYPRP | -0.288
30 | RRIRRRPPRLPRPRPRPDIGPRP | -0.0303
31 | RRIRMRPPRLPRPRPRPLGLPRP | 0.717
32 | RRIRGRPPRLPRPRPRPNILPRP | 0.199
33 | RRIRFRPPRLPRPRPRPDVYPRP | -0.32
34 | RRIRKRPPRLPRPRPRPMYVPRP | -0.0793
35 | RRIRYRPPRLPRPRPRPCRCPRP | -0.0894
36 | RRIRVRPPRLPRPRPRPVGTPRP | -0.0358
37 | RRIRQRPPRLPRPRPRPNQAPRP | -0.0235
38 | RRIRVRPPRLPRPRPRPWPVPRP | 0.197
39 | RRIRHRPPRLPRPRPRPCSSPRP | 0.032
40 | RRIRSRPPRLPRPRPRPPWYPRP | -0.321
41 | RRIRERPPRLPRPRPRPDMCPRP | 0.00902
42 | RRIRLRPPRLPRPRPRPKAPPRP | 0.00522
43 | RRIRCRPPRLPRPRPRPKDSPRP | -0.198
44 | RRIRYRPPRLPRPRPRPMSLPRP | 0.0155
45 | RRIRRRPPRLPRPRPRPQYDPRP | -0.224
46 | RRIRNRPPRLPRPRPRPKPYPRP | -0.342
47 | RRIRQRPPRLPRPRPRPKTEPRP | 0.104
48 | RRIRKRPPRLPRPRPRPMPQPRP | 0.0873
49 | RRIRCRPPRLPRPRPRPNGWPRP | -0.183
50 | RRIRARPPRLPRPRPRPNPTPRP | 1.11

Row | Sequence | shrunken log2 fold change
51 | RRIRYRPPRLPRPRPRPWSCPRP | -0.171
52 | RRIRGRPPRLPRPRPRPDKDPRP | 0.602
53 | RRIRQRPPRLPRPRPRPHYCPRP | -0.0397
54 | RRIRSRPPRLPRPRPRPKGSPRP | 0.0118
55 | RRIRLRPPRLPRPRPRPAQAPRP | -0.0635
56 | RRIRSRPPRLPRPRPRPKCAPRP | 0.0261
57 | RRIRPRPPRLPRPRPRPIHLPRP | -0.146
58 | RRIRKRPPRLPRPRPRPDIDPRP | 2.44
59 | RRIRIRPPRLPRPRPRPRRSPRP | 0.347
60 | RRIRKRPPRLPRPRPRPQSDPRP | 0.247
61 | RRIRHRPPRLPRPRPRPTYQPRP | 0.0668
62 | RRIRVRPPRLPRPRPRPVQCPRP | -0.0156
63 | RRIRQRPPRLPRPRPRPGWVPRP | -0.124
64 | RRIRMRPPRLPRPRPRPGHFPRP | 0.274
65 | RRIRYRPPRLPRPRPRPRHPPRP | -0.266
66 | RRIRCRPPRLPRPRPRPFAAPRP | 0.308
67 | RRIRCRPPRLPRPRPRPRDDPRP | 0.274
68 | RRIRYRPPRLPRPRPRPQVKPRP | -0.318
69 | RRIRPRPPRLPRPRPRPATNPRP | -0.105
70 | RRIRPRPPRLPRPRPRPTRVPRP | 0.547
71 | RRIRERPPRLPRPRPRPQKFPRP | -0.259
72 | RRIRERPPRLPRPRPRPMPEPRP | -0.114
73 | RRIRTRPPRLPRPRPRPFYDPRP | -0.382
74 | RRIRGRPPRLPRPRPRPWKNPRP | -0.138
75 | RRIRKRPPRLPRPRPRPYWDPRP | -0.219

Row | Sequence | shrunken log2 fold change
76 | RRIRYRPPRLPRPRPRPYWVPRP | -0.538
77 | RRIRHRPPRLPRPRPRPTFWPRP | 0.179
78 | RRIRQRPPRLPRPRPRPGSYPRP | -0.2
79 | RRIRLRPPRLPRPRPRPMYNPRP | -0.273
80 | RRIRTRPPRLPRPRPRPWSMPRP | -0.36
81 | RRIRLRPPRLPRPRPRPRLPPRP | 0.149
82 | RRIRLRPPRLPRPRPRPYWRPRP | 0.231
83 | RRIRERPPRLPRPRPRPQNRPRP | -0.281
84 | RRIRFRPPRLPRPRPRPGTAPRP | 0.0678
85 | RRIRLRPPRLPRPRPRPRSQPRP | 0.19
86 | RRIRSRPPRLPRPRPRPDTSPRP | -0.0998
87 | RRIRNRPPRLPRPRPRPQRDPRP | 0.0103
88 | RRIRARPPRLPRPRPRPDMKPRP | -0.0184
89 | RRIRDRPPRLPRPRPRPHPYPRP | 0.0304
90 | RRIRPRPPRLPRPRPRPHNKPRP | -0.508
91 | RRIRLRPPRLPRPRPRPAPSPRP | 0.163
92 | RRIRERPPRLPRPRPRPPKMPRP | -0.212
93 | RRIRMRPPRLPRPRPRPFGVPRP | 0.0231
94 | RRIRFRPPRLPRPRPRPLVTPRP | -0.318
95 | RRIRQRPPRLPRPRPRPVISPRP | 0.0289
96 | RRIRSRPPRLPRPRPRPIGEPRP | -0.017
97 | RRIRPRPPRLPRPRPRPEIMPRP | -0.0268
98 | RRIRGRPPRLPRPRPRPNMDPRP | 0.265
99 | RRIRGRPPRLPRPRPRPSICPRP | 0.207
100 | RRIRIRPPRLPRPRPRPGGAPRP | 0.288

Row | Sequence | shrunken log2 fold change
101 | RRIRKRPPRLPRPRPRPFPKPRP | 0.169
102 | RRIRQRPPRLPRPRPRPHCEPRP | -0.0142
103 | RRIRQRPPRLPRPRPRPRNAPRP | 0.483
104 | RRIRARPPRLPRPRPRPFRFPRP | 0.0596
105 | RRIRVRPPRLPRPRPRPSGPPRP | -0.119
106 | RRIRIRPPRLPRPRPRPIIGPRP | -0.13
107 | RRIRMRPPRLPRPRPRPYHNPRP | -0.47
108 | RRIRHRPPRLPRPRPRPWGVPRP | -0.141
109 | RRIRDRPPRLPRPRPRPYCYPRP | -0.125
110 | RRIRMRPPRLPRPRPRPFIVPRP | -0.414
111 | RRIRVRPPRLPRPRPRPHKDPRP | -0.36
112 | RRIRRRPPRLPRPRPRPWMIPRP | -0.26
113 | RRIRKRPPRLPRPRPRPMSMPRP | 0.0472
114 | RRIRYRPPRLPRPRPRPCQIPRP | -0.00804
115 | RRIRDRPPRLPRPRPRPGMDPRP | 0.216
116 | RRIRHRPPRLPRPRPRPTGEPRP | -0.0103
117 | RRIRMRPPRLPRPRPRPQPAPRP | 1.55
118 | RRIRERPPRLPRPRPRPTKLPRP | -0.0612
119 | RRIRWRPPRLPRPRPRPHSDPRP | 0.0062
120 | RRIRARPPRLPRPRPRPTQSPRP | 0.902
121 | RRIRARPPRLPRPRPRPCYNPRP | -0.456
122 | RRIRPRPPRLPRPRPRPSDLPRP | -0.385
123 | RRIRCRPPRLPRPRPRPAHSPRP | -0.129
124 | RRIRTRPPRLPRPRPRPKQYPRP | -0.379
125 | RRIRLRPPRLPRPRPRPEPVPRP | 2.62
